# Molecular target: EBOV GP.10xhis
# Assay: SPR
# Conditions: for increase in kd values at pH 5.0: second pH 7.4
Substance,koff (pH 5.0),t 1/2 (min) (pH 5.0),koff (pH 6.0),t 1/2 (min) (pH 6.0),koff (pH 7.4),t 1/2 (min) (pH 7.4),increase in kd values at pH 5.0
REGN3470,0.000491 s⁻¹,23.5 min,0.000367 s⁻¹,31.4 min,0.000432 s⁻¹,26.7 min,less than 2-fold
REGN3471,0.000332 s⁻¹,34.8 min,0.000221 s⁻¹,52.3 min,0.000195 s⁻¹,59.1 min,less than 2-fold
REGN3479,0.000202 s⁻¹,57.3 min,0.000214 s⁻¹,55.1 min,7.83e-05 s⁻¹,148 min,3-fold
